In patent US20170247475A1 (Boehringer Ingelheim, published 2017):

Columns and labels:
human PIGF = target: T1, human PIGF (human, UniProt P49763-2 21-149, limits assumed); assay: solid phase binding ELISA
T1 construct: also called hPIGF; PLGF
T1 sequence (looked up): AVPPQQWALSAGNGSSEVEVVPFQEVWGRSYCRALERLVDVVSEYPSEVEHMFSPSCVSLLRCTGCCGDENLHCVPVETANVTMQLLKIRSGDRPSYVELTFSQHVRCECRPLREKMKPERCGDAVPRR
Experimental: (§1) Binding to VEGFB, VEGFC, VEGFD and PIGF is assessed via a solid phase binding ELISA. In brief, VEGFB, VEGFC, VEGFD and PIGF (R&D Systems, Minneapolis, Minn., USA) are coated overnight at 4° C. at 1 μg/mL in a 96-well MaxiSorp plate (Nunc, Wiesbaden, Germany). Wells are blocked with a casein solution (1% in PBS). […] As positive controls serial dilutions of the appropriate receptors are taken along and detected with horseradish peroxidase (HRP)-conjugated goat anti-human IgG, Fc specific antibody (Jackson Immuno Research Laboratories Inc., West Grove, Pa., USA) and a subsequent enzymatic reaction in the presence of the substrate TMB (3,3′,5,5′-tetramentylbenzidine) (Pierce, Rockford, Ill., USA).

human VEGF-B = target: T2, human VEGF-B (human, UniProt P49765-2 22-188, limits assumed); assay: solid phase binding ELISA
T2 construct: also called hVEGF-B
T2 sequence (looked up): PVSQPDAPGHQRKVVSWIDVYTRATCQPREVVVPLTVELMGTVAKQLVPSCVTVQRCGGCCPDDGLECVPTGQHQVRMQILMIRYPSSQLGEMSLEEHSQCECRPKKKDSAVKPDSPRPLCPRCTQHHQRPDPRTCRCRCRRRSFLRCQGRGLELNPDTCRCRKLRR
Experimental: as §1

human VEGF-C = target: T3, human VEGF-C (human, UniProt P49767 103-227); assay: solid phase binding ELISA
T3 construct: also called hVEGF-C
T3 sequence (looked up): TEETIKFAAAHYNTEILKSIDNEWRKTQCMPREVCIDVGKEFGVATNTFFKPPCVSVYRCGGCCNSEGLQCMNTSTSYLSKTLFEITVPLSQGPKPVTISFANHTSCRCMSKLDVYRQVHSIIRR
Experimental: as §1

human VEGF-D = target: T4, human VEGF-D (human, UniProt O43915 93-201); assay: solid phase binding ELISA
T4 construct: also called hVEGF-D
T4 sequence (looked up): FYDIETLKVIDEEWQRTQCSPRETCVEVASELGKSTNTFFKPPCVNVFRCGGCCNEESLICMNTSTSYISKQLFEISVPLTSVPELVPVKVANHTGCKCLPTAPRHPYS
Experimental: as §1

[1] = target: T5, recombinant human VEGF165 (human, UniProt P15692-4 27-191); assay: hVEGF165/hVEGFR2-Fc competition ELISA
T5 construct: also called hVEGF165; rhVEGF165
Target sequence in this assay (P15692 other isoform, or with tags, fused parts or gaps limits assumed): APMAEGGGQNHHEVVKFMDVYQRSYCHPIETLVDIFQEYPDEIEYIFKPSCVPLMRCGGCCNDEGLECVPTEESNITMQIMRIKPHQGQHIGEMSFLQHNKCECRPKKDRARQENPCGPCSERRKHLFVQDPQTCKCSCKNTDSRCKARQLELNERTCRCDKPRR

[2] = target: T5, recombinant human VEGF165; assay: Biacore, periplasmic extract on hVEGF165 chip
Target sequence in this assay (P15692 other isoform, or with tags, fused parts or gaps limits assumed): as above

[3] = target: T5, recombinant human VEGF165; assay: ka1; SPR Biacore T100, hVEGF165 on chip, Two State Reaction model
Experimental: Samples are injected for 2 min and allowed to dissociate up to 20 min at a flow rate of 45 μI/min. In between sample injections, the chip surface is regenerated with 100 mM HCl. HBS-EP+(Hepes buffer pH7.4+EDTA) is used as running buffer. Binding curves are fitted using a Two State Reaction model by Biacore T100 Evaluation Software v2.0.1.
^{(a)}Heterogeneous binding curve resulting in no 1:1 fit, curves are fitted using a Two State Reaction model by Biacore T100 Evaluation Software v2.0.1
Target sequence in this assay (P15692 other isoform, or with tags, fused parts or gaps limits assumed): as above

[4] = target: T5, recombinant human VEGF165; assay: Biacore, periplasmic extract on hVEGF165 chip, two phase decay fit
Target sequence in this assay (P15692 other isoform, or with tags, fused parts or gaps limits assumed): as above

[5] = target: T5, recombinant human VEGF165; assay: competition AlphaScreen, blocking of hVEGF165 binding to hVEGFR2-Fc
Target sequence in this assay (P15692 other isoform, or with tags, fused parts or gaps limits assumed): as above

[6] = target: T5, recombinant human VEGF165; assay: as above; remark: listed apart in the source
Target sequence in this assay (P15692 other isoform, or with tags, fused parts or gaps limits assumed): as above

[7] = target: T5, recombinant human VEGF165; assay: AlphaScreen competition, 0.05 nM hVEGF165 and 0.05 nM hVEGFR2-Fc; blocked: hVEGFR2-Fc
[8] = target: T5, recombinant human VEGF165; assay: as above; remark: listed apart in the source
[9] = target: T5, recombinant human VEGF165; assay: as above; remark: listed apart in the source
[10] = target: T5, recombinant human VEGF165; assay: AlphaScreen competition, 0.05 nM hVEGF165 and 0.05 nM hVEGFR1-Fc; blocked: hVEGFR1-Fc
[11] = target: T5, recombinant human VEGF165; assay: AlphaScreen competition, 0.05 nM hVEGF165 and 0.05 nM hVEGFR2-Fc; blocked: hVEGFR2-Fc; remark: listed apart in the source

Binder	binding result (human PIGF)	binding result (human VEGF-B)	binding result (human VEGF-C)	binding result (human VEGF-D)	% inhibition [1]	IC50 [1]	Binding level (RU) [2]	kon [3]	% fast [4]	IC50 (read off the curve) [5]	IC50 (read off the curve) [6]	IC50 (read off the curve) [7]	IC50 (read off the curve) [8]	IC50 (read off the curve) [9]	IC50 (read off the curve) [10]	IC50 (read off the curve) [11]
VEGFBII23B04 (VHH, also called VEGFBII23B4; VEGFBII23B04 (wt)) VHH: EVQLVESGGGLVQTGDSLRLSCEVSGRTFSSYSMGWFRQAQGKEREFVVAISKGGYKYDSVSLEGRFTISKDNAKNTVYLQINSLKPEDTAVYYCASSRAYGSSRLRLADTYEYWGQGTQVTVSS	no binding (tested: 500 nM-32 pM)	no binding (tested: 500 nM-32 pM)	no binding (tested: 500 nM-32 pM)	no binding (tested: 500 nM-32 pM)	100%	2.1 nM	768 RU	210000 M⁻¹ s⁻¹	12%							
VEGFBII038 (VHH, also called VEGFBII0038; VEGFBII00038) VHH: DVQLVESGGGLVQPGGSLRLSCAASGRTFSSYSMGWFRQAPGKEREFVVAISKGGYKYDAVSLEGRFTISRDNAKNTVYLQINSLRPEDTAVYYCASSRAYGSSRLRLADTYEYWGQGTLVTVSS										~0.4 nM	~0.4 nM	~0.4 nM	~0.5 nM	~0.5 nM	~0.8 nM	~0.2 nM
